Test: yeast display, Sf9 membrane polyspecificity reagent, FACS + sequencing; frameworks hold sequencing errors
How it was run: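 Polyreactivity labels are assigned by the sorting gate from which each nanobody was recovered. The gates were low and high (top ~1%), set on anti-HA fluorescence for expression and streptavidin fluorescence for reagent binding. Before sorting, galactose-induced (36–48 hours) yeast display cells were stained for 1 hour at 4 °C with 10% biotinylated, detergent-solubilized Sf9 membrane reagent.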

Sequence | polyreactivity (PSR sort gate)
QVQLVESGGGLVQAGGSLSLSCAASGSIFYHNAMGWYRQAPGKERELVAAITGSGGSTYYADSVKGRFTISRDNAKNTVYLQMNSLKPEDTAVYYCAAVQLYQKHQITYVAHEYWGQGTQVTVSS | low polyreactivity
QVQLVESGGGLVQAGGSLSLSCAASGSIFYSNSMGWYRQAPGKERELVAAINWRGGSTYYADSVKGRFTISRDNAKNSVYLQMNSLKPEDTAVDYCAAVYPVHLRGQYPIPKYNYWGQGTQVTVSS | low polyreactivity
QVQLVESGGGLVQAGGSLSLSCAASGSIFYVYAMGWYRQAPGKERELVASINKSGGSTYYADSVKGRFTISRDNAKNTVYLQMNSLKPEDTAVYYCAARYGWPRVGFQYPAHVGFDYWGQGTQVTVSS | low polyreactivity
QVQLVESGGGLVQAGGSLSLSCAASGSSFSLYTMGWYRQAPGKERDLVASISQSGGSTYYADSVKGRFTISRDNAKNTVYLQMNSLKPEDTAVYFWNAKGRSGTLTLYYYWGQGTQVTVSS | low polyreactivity
QVQLVESGGGLVQAGGSLSLSCAASGSTFAFNAMGWYRQAPGKERELVAAIYSDGSTDYADSVKGRFTISRDNAKNTVYLQMNSLKPEDTAVYYCAADWGWRYVLPVGWFRYGYWGQGTQVTVSS | low polyreactivity
QVQLVESGGGLVQAGGSLSLSCAASGSTFDYYAMGWYRQAPGKERELVADITYSGGSTYYADSVKGRFTISRDNAKNTVYLQMNSLKPEDTAVYYCNAYYTVYTRYDYWGQGTQVTVSS | high polyreactivity
QVQLVESGGGLVQAGGSLSLSCAASGSTFLKYTMGWYRQAPWKERELVAAISKSGGSTYYADSVKGRFTISRDNAKNTVYLQMNSLKPEDTAVYYCAKGRYWVYSYGYGYWGQGTQVTVSS | high polyreactivity
QVQLVESGGGLVQAGGSLSLSCAASGSTFNRNAMGWDRQAPGKEREFVAAITWSGGSTYYADSVKGRFTISRDNAKNTVYLQMNSLKPEDTAVYYCNADRFSSRHSYDYWGQGTQVTVSS | low polyreactivity
QVQLVESGGGLVQAGGSLSLSCAASGSTFVYNAMGWYRKAPGKERELVAAISSGGSTNYADSVKGRFTISRDNAKNTVYFQMKSLKPEDNRSEYSRYVVYDYWGQGTQVTVSS | low polyreactivity
QVQLVESGGGLVQAGGSLSLSCAASGYTFPYYTMGWYRQAPGKERELVATITRRGDSTYYADSVKGRFTISRDNAKNTVYLQMNSLKPEDTAVYYCNTASYGRHQFRKSSKMDYWGQGTQVTVSS | high polyreactivity
QVQLVESGGGLVQAGGSLSLSCAATGFTFRPYAMAWYRQATGKERELVAAITSGDSTNYADSVKGRFTISRDNAKKSVYLQMISVKAEDTAVFYCAADSTGRPSVSYDYWGQGTQVTVSS | low polyreactivity
QVQLVESGGGLVQAGGSLSLSCAATGINYGDYAMGWYRQAPGKERELVAAISSDTSTNYADSVKGRFTISRDNAKNTVYLQMNSLKPEDTAVYECAAEGSYYGWYQGFDYWGQGTQVTVSS | low polyreactivity
QVQLVESGGGLVQAGGSLSLSCAATGRIFDGNVMGWYRQAPGKERELVAAISSGDSTNYADSVKGRFTISRDNAKNTVYLQRNSLKTEDTAVYDCNRTPNSGGYDRFYGGDFYYWGQGTQVTVSS | low polyreactivity
QVQLVESGGGLVQAGGSLSLSCAATGRTFVKNAMGWYRQAPGKERELVASISRSGGSTYYADSVKGRFTISRDTAKNTVYLQMNSLKTEDTAVYYCNAAVYGGYSRSRYGYWGQGTQVTVSS | high polyreactivity
QVQLVESGGGLVQAGGSLSLSCAATGSTFSLYAMGWYIQAPGKERELVAAISSSGGSTYYADSVKGRFTISRDNAKNTVYLQMNSLKPEDTAVYYCAAYRVGSYDYWGQGTQVTVSS | high polyreactivity
QVQLVESGGGLVQAGGSLSLSCAAYGFTFERNGMGWYRQAPGKERELVAAISIRGGSTYYADSVKGRFTMSRDNAKNTVSLQMNSLKPEDTAVYYCAVVARRAFDYWGQGTQVTVSS | high polyreactivity
QVQLVESGGGLVQAGGSLSLSCAAYGRTFTYYAMGWYRPAPGKERELVAVISSGGRTYYADSVKGRFTISRDNAKITVSFQMNSLKPDDKGVYYCNAASPRYLVEYDFWGQGTQVTVSS | high polyreactivity
QVQLVESGGGLVQAGGSLSLSCAAYGRTSPIYAMGWYRQAPGKERELVASITRCTRTNYADSVKGRFTISRDNAKNTVYLQMNSLKPEDTAVYYCAAVSYSYSLNAYDYWGQGTQVTVSS | low polyreactivity
QVQLVESGGGLVQAGGSLSLSCAAYGSTFDPNDMGWYRQAPGKERELVAVIDSGDGTTYYADSVKGRFTISRDNAKNTVYLQMNRLKPEDTAVYYCAVDESTSYYDDHEDYWGQGTQVTVSS | low polyreactivity
QVQLVESGGGLVQAGGSLSLSCAAYGSTFLRNAMGWYRQAPGKKGSWVATISYDGDSTYYADSVKGRFTISRDNAKNTVYLQMYSLKPEDTAVYYCAASYSLTFWDKDDYWGQGTQVTVSS | low polyreactivity
QVQLVESGGGLVQAGGSLSLSCADSAGTFKTNAKGWYRQAPGKERELVAAITGSGTSTYYADSVKGRFTSSRDNAKNTVYFQMNSLKPEDTAVYYCAADKLYQPGIGDDYWGQGTQVTLSS | low polyreactivity
QVQLVESGGGLVQAGGSLSLSCASSGSIFVRNVMGWYRQAPWKERELVATIRTRGGSTSYADSVKGRFTISRDNAKNTVYLQMNSLTPEDTAVYYCNARLSYRSAWYYGGDRYDYWGQGTQVTVSS | high polyreactivity

Sequence | polyreactivity (PSR sort gate)
QVQLVESGGGLVQAGGSLSLSFAASGRTFGYYDMGRYRQAPGKEREFVAAITWSGGNTYADSVKGRFTISRDNAKNTVYLQMNSLKPEDTAVYYCNAVVRAYYTSIWVPRYDYWGQATQVTVSS | high polyreactivity
QVQLVESGGGLVQAGGSLSLSSAATGNIFRNNAMGWYRQAPGKERELGAAISYSGGRTFYADSVKGRFTISRDNAKNTVYLQMNSLKPEDTAVYYCAVTYGRNADDYEYWGQGTQVTVSS | high polyreactivity
QVQLVESGGGLVQAGGSLSLTCAASGRIFSYYAMGWYRQAPGKERELVAGISRGTSTYYADSVKGRFTISRDNAKNTVYLQMNSLKPEDTAVYYCAADYFSYYSPYRYGYWGQGTQVTVSS | high polyreactivity
QVQLVESGGGLVQAGGSNRLSCAASGFTFYRNVMGWYRQAPGKERELVAARTWNGGTTYYADSEKGRFTISRDTAKSSVYLQMDSLQREDTAVYFCAAASRHTGSYRFYYWGQGTQVTVSS | high polyreactivity
QVQLVESGGGLVQAGGSQRLSCAASGRTFRGNAMGWYRQAPGKERELVATINSGGSTNYADSVKGRFTISRDKAKNTVYLQMNSLIPEDTAVYYCAAVKYFRWKYNYWGQGTQVTVSS | high polyreactivity
QVQLVESGGGLVQAGGSRRLSCAASGFTFSQYTRGWYRQAPGKERELVAAISSGSSTYYADSVKGRFTISRDNAKNTVYLQMNSLKPEDTAVYYCAARVGWYTWGYYWGQGTQVTVSS | high polyreactivity
QVQLVESGGGLVQAGGSRRLSCAASGFTFSSYAMGWYRQAPGKERELVASISWRGGITYYADSVKGRFTISRDNAKNTVYLQMNSLKPEDTAVYYCAAVAFFRPKFYYWGQGTQVTVSS | high polyreactivity
QVQLVESGGGLVQAGGSRRLSCAASGLIFYYYAMGWYRQAPGKERELVAAISGSGGSTYYADSVKGRFTISRDNAKNTVYLQMNSLKPEDTAVYYCNKLSWRKYLGYEYWGQGTQVTVSS | high polyreactivity
QVQLVESGGGLVQAGGSRRLSCAASGRIFRIYAMGWYRQAPGKERELVAAITWSGGSTYYADSVKGRFPISRDNAKNTVYLQMNSLKPEDTAVYYGAAKARSNKYNYWGQGTQVTVSS | high polyreactivity
QVQLVESGGGLVQAGGSRRLSCAASGRIFSQNTRGCYRQAPAKERELVAVISWRCGRTSYSDSVKGRFTISRDNSKNTVFLKMKSLKQEDTAVYYCAASAKLHYYRTYRYNYWGQGTQVTVSS | high polyreactivity
QVQLVESGGGLVQAGGSRRLSCAASGRTFVGTAMGWSRQAPGKERELVAAMSGDGSTNYADSVKGRFTISRDNAKNTVYLQMNSLKPEDTAVYYCAADGVTRYYQRTYTRYGYWGQGTQVTVSS | low polyreactivity
QVQLVESGGGLVQAGGSRRLSCAASGSIFTGYAMGWYRQSPGKERELVAAINSNGGRTYYADSVKGRFTISRDNAKNTVYLQMNSLKPEDTAVYYCAADSGRGYRYKTFNWGRFYWGQGTQVTVSS | high polyreactivity
QVQLVESGGGLVQAGGSRRLSCAASGSTFEYNAMGWYRQAPGKERELVASSTNYADSVKGRFTISRDNAKNTVYLPMNSLKPEDTAVYYCAREQGVNRNHDYWGQGTQVTVSS | low polyreactivity
QVQLVESGGGLVQAGGSRRLSCAASGSTFSSYAKGWYRQAPGQERELVAAISSSGSRTYYADSVKGRFTISRDNAKNTVYLQMNSLKPEDTAVYYCAADYYYNTKLDYWGQGSQVTVSS | high polyreactivity
QVQLVESGGGLVQAGGSRRLSCAGSGRIFHYYAMGWYRPAPGTERELVAAISRTGSTYYADSVKGRFTISRDNAINTVYLQMNSLKPEDTAVYYCAADYWPQSNRWVYFRYGYWGQGTQVTVSS | high polyreactivity
QVQLVESGGGLVQAGGSRRLSCDASGRTFGYYAMGWYRQAPGKERELVAAISSSGGSTYYADSVKRRFTISRDNAKNTVYLQMNRLKPEDTAVYYCAADTSDTPDYYYWGPGTQVTVSS | low polyreactivity
QVQLVESGGGLVQAGGSRRLSWAASGFIFARNTMGWYRQAPGTERELVAAITKSGGSTYYADSVKGRFTISRDNAKNTVYLQMNILKPEDTAVYYCGARSYTLRGVYFSGYDYWGQGTQVTVSS | low polyreactivity
QVQLVESGGGLVQAGGSRSLSCAASGSTFYSYAMGWYRQAPGKERELVAAINWDGVSTYYADSVKGRFTISRDNAKNTVYLQMNSLKPEDTAVYYCAAELFSGYRISGTYYYWGQGTQVTVSS | low polyreactivity
QVQLVESGGGLVQAGGSVRLSCAASGLTFQRYAMGGYRQAPGKERELVASITGNGGSTYYADSVKGRFSISRDNAKNTVYLQMNSLKPEDTAVYYCNARRYVRTCQQPLYDYWGQGTQVTVSS | high polyreactivity
QVQLVESGGGLVQAGGSVRLSCAASGSIFQYNTMGWYRQAPGKDRELFADINGRGGSTYYADSVKGRFTISRDNAKNTVYLQMNSLKPEDTGVYYCNARVFGGYSKYLFIGRYYWGQGTQVTVSS | low polyreactivity
QVQLVESGGGLVQAGGTLRFSCAASGSILEYYTMGWDRQAPGKERELVAAISASGGNTYYADSVKGRFTISRANAKNTVYFQMNSLKPEDTAVYYCNAYYGPRGYGYWGQGTQVTVSS | high polyreactivity

From the nanobody polyreactivity screen of Harvey et al. (2022)
